The values below come from patent US20200292536A1.

In assay [1] the target is BCL2 peptide Ac-…-amide (amino acids 41-54 of human BCL2 with linkers) (human). Put plainly: chromogenic IHC on peptide/BSA gel TMA, antigen concentration at half-maximum signal.
For assay [2], the target named is Bovine serum albumin (BSA; Ultra Pure) (bovine) (UniProt P02769). In words: chromogenic IHC on TMA, cores without peptide.
Assay [3] has as its target MYC peptide Ac-…-amide (amino acids 9-24) (human). Put plainly: IHC with clone Y69 on donor block sections, alternative fixatives.
Assay [4] shares this target. In words: chromogenic IHC on BCL2/MYC peptide TMA.
The target of assay [5] is BCL2 peptide Ac-…-amide (amino acids 41-54 of human BCL2 with linkers) (human). Put plainly: chromogenic IHC, aggregate of 10 assays; BCL2 peptide 2.5E-07 M as formulated.
For assay [6] the target is unchanged. In words: chromogenic IHC, aggregate of 10 assays; BCL2 peptide 2.5E-05 M as formulated.
For assay [7], the target named is Bovine serum albumin (BSA; Ultra Pure) (bovine) (UniProt P02769). Put plainly: chromogenic IHC, aggregate of 10 assays; BSA only cores.
In assay [8] the target is BCL2 peptide variant with N-terminal arginine (R-C) (human). Put plainly: chromogenic IHC with clone 124 on peptide/BSA gel TMA.
Chain of BCL2 peptide variant with N-terminal arginine (R-C) (human) (peptide, as listed by the source mutant): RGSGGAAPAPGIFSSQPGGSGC
For assay [9], the target named is Bovine serum albumin (BSA; Ultra Pure) (bovine) (UniProt P02769). Put plainly: immunofluorescent IHC on TMA, cores without peptide.
For assay [10], the target named is BCL2 peptide Ac-…-amide (amino acids 41-54 of human BCL2 with linkers) (human). Put plainly: chromogenic IHC, aggregate of 10 assays.
Assay [11] shares this target. In words: chromogenic IHC, aggregate of 10 assays; BCL2 peptide 2.5E-08 M as formulated.
Assay [12] shares this target. In words: chromogenic IHC, aggregate of 10 assays; BCL2 peptide 2.5E-06 M as formulated.
For assay [13], the target named is Bovine serum albumin (BSA; Ultra Pure) (bovine) (UniProt P02769). Put plainly: chromogenic IHC, aggregate of 10 assays; cores without peptide.
In assay [14] the target is BCL2 peptide Ac-…-amide (amino acids 41-54 of human BCL2 with linkers) (human). In words: chromogenic IHC, aggregate of 10 assays; BCL2 peptide 2.5E-04 M as formulated.
Assay [15] has the same target. Put plainly: IHC with clone 124 on donor block sections, alternative fixatives.
The target is the same in assay [16]. Put plainly: chromogenic IHC on BCL2 peptide TMA with or without prior antigen retrieval.

A value given as a limit tells only on which side of the number the result lay.

Chain of UniProt P02769 (P02769 25-607 limits assumed): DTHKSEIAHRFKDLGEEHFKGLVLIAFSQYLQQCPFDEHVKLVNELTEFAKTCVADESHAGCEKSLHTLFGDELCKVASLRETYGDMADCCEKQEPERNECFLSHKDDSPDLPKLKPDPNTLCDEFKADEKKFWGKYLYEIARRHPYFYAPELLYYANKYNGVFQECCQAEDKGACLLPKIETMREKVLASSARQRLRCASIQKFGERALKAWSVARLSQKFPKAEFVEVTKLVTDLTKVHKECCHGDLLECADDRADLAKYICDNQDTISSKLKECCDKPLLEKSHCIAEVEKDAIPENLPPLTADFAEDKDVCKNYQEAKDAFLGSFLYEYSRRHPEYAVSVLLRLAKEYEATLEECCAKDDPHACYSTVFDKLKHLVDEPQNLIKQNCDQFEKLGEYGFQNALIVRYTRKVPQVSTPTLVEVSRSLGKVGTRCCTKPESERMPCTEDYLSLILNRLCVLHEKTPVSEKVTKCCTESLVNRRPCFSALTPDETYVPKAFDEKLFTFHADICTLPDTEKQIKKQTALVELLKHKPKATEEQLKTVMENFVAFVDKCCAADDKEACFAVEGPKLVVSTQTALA
Chain of BCL2 peptide Ac-…-amide (amino acids 41-54 of human BCL2 with linkers) (human) (peptide, as listed by the source): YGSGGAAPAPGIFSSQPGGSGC
Chain of MYC peptide Ac-…-amide (amino acids 9-24) (human) (peptide, as listed by the source): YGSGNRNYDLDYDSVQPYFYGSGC

For the substance “rabbit anti-human BCL2 clone EPR17509 (antibody)”, in [1], the ACHM, fold lower than the ACHM for the chromogenic clone 124 assay was determined as 8 fold and the ACHM, fold lower than the fluorescent clone 124 assay was over 50 fold. This substance also returned a non-specific signal in cores containing no added peptide, % of the maximum detectable signal in assay [2] of 23%.
“rabbit anti-human MYC clone Y69 (antibody)” yielded a fold signal, formaldehyde fixation against zinc fixation during heating in [3] of 10 fold. The same substance came in with an ACHM, fold lower than the BCL2 protocol (clone 124 on BCL2 peptide) in [4] of 4 fold.
“CONFIRM anti-bcl-2 (124) Mouse Monoclonal Primary Antibody”: the Intensity Mean (pixel intensity units) in assay [5] worked out at 18; in assay [6] it was 202; in assay [7] it was 4.8; in assay [11], 6.1; in assay [12] it was 105; in assay [14], 212. In assay [8], the ACHM (antigen concentration at half-maximum signal) worked out at 443 nM. The ACHM, fold lower than the original Y-C variant in assay [8] turned out to be 6 fold. In [9], this substance came in with a non-specific signal in cores containing no added peptide, fold lower than in the chromogenic clone 124 assay of 1000 fold. The substance further returned a limit of detection (LOD), peptide concentration in [10] of 230 nM. The limit of detection (LOD), signal in assay [10] turned out to be 16 units. Besides, in [13], the limit of blank (LOB) came out at 8 units. Besides, the non-specific signal in cores containing no added peptide, % of the maximum detectable signal in assay [2] amounted to 2.7%. In assay [15], the fold signal, formaldehyde fixation against zinc fixation during heating was 10 fold. For the same substance, in assay [16], the fold signal strength with against without antigen retrieval was found to be 6 fold.
